A short description of this data set: soluble on expression in E. coli; label from the status in PepcDB or PDB records.
On to “MGSDKIHHHHHHMKVKYIAAILLSTQLVYTACDDMGFLQIKPDSLELTDDRIKTVDDLENLLLGAYNGIRSSGFWGGRTLRGFDVIADDGVADVATFEWVQMSAHTMNLVNAVGRDTWTATYNAINMANQVAFSDLGESILASDPQKEAQFKAEASFIRALGYFHLVRAFGLPYAEETKDIAEMGVPLRLRGVMDRATAFEVVQRSTVSEVYSQIISDLEYAIGNLPGENKVESGRATVDGAKALLAKVYFYKHDFGNAAKYAEQVINTQKYDLDEDLTAKFGRAEKKTVTQEIVAMIPSASLIEDSWGGLRDYRTNGLALPTSRPSNELIAAYDQQNDNRFKTFFKNIDGSWYTLKFDYEYMDGIIIGYNELLLLYAESLAESNGNMNQALNALQKIEKRAYGKANTTTTDRASFIKAVQKERRLEIALQGERLFELKRIKQSVRGEAWDSHKVMFQIPDVEQNGNPDVNMN”, for which the “soluble on expression in E. coli” value is given as “not soluble”.
In the case of “QTVIKGLVLAADNEAPVSYASIYVAETKSGVVADESGRFILRLHPGRYRLAIRSMGYTPLETELLVGEKSEEKTFRLSSVIYDLKEVEVIGKRPKEDPAYPIMRELIARTPVYEHMVKSYQAKVYTKGSMRLDKLPFWLRYKKADGISAKDLEKKRFVIESQASLEFRHPNKYNKQVRAMRSSIPDDLKSDTTDYMQIISTNIYAKEFSLDGIVNMASPIRTGVLESYTYKLEGTSREKERKVYHISFKGRRDAMRGELWVIDSIWCLQALKLEIKAYDMIRYKVDISLNPLEKDVYLPTTYAIGMEMQSMGLKLEYQYFSSLVYDSLEIDRKLLSTARRAEGLRFRTNREVNRHLRMLESRLDTLGYHLPDKYMLPDTELQAKVRFDSLAFDRDSSYWDAVVTAPLTDEEAQSYANRDSLMQAFEKKRRFGGGREGERTGRTSILGAILGGHDYKMGEGTTLGFNGLIRGSLYDYRYTDGFWLGQSFFFRQKFSKGVDLTLRPILYYTTHRRKLYWDVRADFRYAPLSGGLLSLSAGRQSADLTGPFANTDWRIQTFLTTLVDGRGHLMLYDKKYLRLSNQIDLLPGLQLFLFAEGRHSSPLAENRVWGIFKKPIKNKLIGGIASSPDSLLYSMPDHRSLTVGGSIRYNPAPYYRLDKDGRKRYDGVGTRAPLFGLTYRQAIPLGREHDSDYIYLSGSVRQNLRLNPLHSLYYHFTVGSYFRRHTVHLDEQRYLKADNALFQIGGTLHDSFQTLPPYSYTDQNFLILQTR”, the “soluble on expression in E. coli” value is on record as “not soluble”.
As for “MYDVLDSQSVLEVLRPVQDPELRKSLVELNMIRNVKIDGGQVSFTLVLTTPACPLREFIVEDCQRAVKKLPGVTDVSVEVTAETPQQKSLPDRNGVPGVKNIIAISSGKGGVGKSTVAVNVAVALAQTGAKVGLLDADIYGPNDPTMLGLGDAQIVVRSTEKGEVLEPAFNHGVKLVSMGFLIDRDQPVIWRGPMLNGVIRQFLYQVEWGELDYLIVDMPPGTGDAQLTLTQAVPMSGAVIVTTPQNVALLDSRKGLRMFQQMNVAVLGIVENMSYFIPPDMPDKHYDIFGSGGGSKTAAELGVPLLGCIPLEISTRIGGDNGVPIVVADPDSASAKALKAIALTIAGKVSVAALTLEHHHHHH”, the “soluble on expression in E. coli” value is on record as “soluble”.
The same measure for “MPANARSHAVLTTESKVTIRGQTTIPAPVREALKLKPGQDSIHYEILPGGQVFMCRLGDEQEDHTMNAFLRFLDADIQNNPQKTRPFNIQQGKKLVAGMDVNIDDEIGDDE”: “soluble”; for “MAESVNLVCTFCGSVCDDGQFDVEQFKSKKLCKLGSAKFSKKERIKAPMIDGKEVSYEEAIEKAAEILVNAKKPLLYGWASTVNEAIRLGVILTEKVGGVYDQCASVCHAPGTLAVIEEGLPGGTLGAIKNRADVVVFWGANPMEAHPRHGMRYSISAKGLLIKDRKQRKVIVVDVRPTKTAKLADEFIQIKPGYDYPIISALRAIISGNADAVPDEVGGVSKEKLVELAETMKNAKYGAVLYGLGVTQSRGRDRNVENAVKLIQLLNRHTRWVIWPMRGHYNVVGAGEVPAWEVGYQYAIDFSRGYPRFSPAEFSAVEVLKRKDCDAALIIASDPVAHFPRAAVKHLKEIPVIQIDPFPNMTTLVANVVIPSAVAGLEAEGTAYRMDGIALRVKKVVESSYWSDEQILEKLLEKVEELKG”: “not soluble”; for “MLRFPENVVICDGKRILWNGLGLPENLVFEMARTVLESNVPLKGKIFCFPAQTVLGKMAIFTDEKTQGRDVLVELLNHELLRMRLYSEEVENLVEVLFNDWRPGKRVFIVRSKNFETRLSLREKLSSFADVIYNAGEIDVGIAPAGTLLQINEEKVSFSDPERDIKEAVRKALLIDRYVNEPFSFYEKLPAYNFSLNIQIPELVKIFLRTGDIQKTSELTEKNVEVVFREILKFEKKTLLSPRIPVEAFLILKGGLD”: “not soluble”.
Consider “MEVKLPELGDNVTQATVVGVLVKEGDRVEPGQPLLELETDKAVVEVPAEAGGVVKRVLVKVGDEVRPGQPFLELAEAEGGAEAPPLKAEERPEAPAPKAEEAPRPAPKEAPPAPQEAPSERRLIPAAPSIRRLARELGVDLTRLRGTGLAGRITEEDVRRAAGLGEAAPAALPAAPAPRLPDFTKWGPVRREPMSGVRKATVRSMSQAWAQVPMVTHFDEADVTELEALRKQYAKKAEEKGFRLTLTAFLLKALALTLKAFPKFNASLDVEAQEIVYKDYIHIGVAVDTPHGLLVPVIRDVDRKGVLRLAEELQEISQRARERKLSPEEMQGATFSLSNLGGIGGTGFTPIVNWPEVAILGVSRSQMKPLWDPGKEAFVPRLVMPFSLTYDHRLIDGADAARFCRHLAGILEDPLGLALA”, for which the “soluble on expression in E. coli” value is recorded as “soluble”.
Regarding “MGSDKIHHHHHHMFIGREKELATLNGLYNSDKFEFAVIYGRRRVGKTALISHFIQDKKAIYFMGVESNEKQNLENFSQAIMEYASGIMPGTSFVSFQAAIEYVFKLCENERLVLVIDEYPYVAKASKSMASTLQMLIDKNKDNSKMMLILCGSSMSYMEDNVLAYKAPLYGRRTAQMKILPFDFEDSCKYFNGFSAEDMALIYGIVGGTPQYLLQMNDSMSVEDNIKNVFLNPASAIFEEPENLLKQEVREPAVYNAIITAVATGSSRMSEIATKIGETTSVCSQYMKNLINLGLIRKETPYGEKESRKSIYAIADNMFRFWYRFIPDNNSIISRGATELAYKRIAPNLSDYMGRIFEEICMQYMWKLLLDGESPVEFSNLGRWWGTDPQERIQTEIDIMGDQDKSTVLFGECKWINENVDVKVLEKLKKRSRLFRYENVHLFLFAKKGFTQGCIEEAGKMGNVSLVTYDQIYRYLNNIDLSQ”, the “soluble on expression in E. coli” value was “not soluble”.
For “MGSDKIHHHHHHMIKSISTGRTQQGYFSPVEKQMFGAALLADPDTSSPFSDVLSIAESGCSSSLLQQLTSVTKRFRHLKPEQYLLRQQDQFDSLFVVKKGALKSYRLTPEGEEIVTGFYMEGDVIGAGGLGNHKHFYSVVALEPSSLYEIPFAKLLQQSAMEPIVQQLMLKLLSQEMQADQSLRLIQLKQVKAAIASLILNIANRLTATQITLPMSRVDIANLLGVASETVCREFTRLQKQGLLSVNRKHIVINDLPQLQLAAGGDCY”, the “soluble on expression in E. coli” value is listed as “not soluble”.
For “MGSDKIHHHHHHCSEELDSQPMESYPEGGEPLDVVCKEYGISDYEDIELLSYYKNNLEQANFSGLREEKLWLASFNVKDKSPIINWTDELPFNRNRKIYKGYGEYEDVTIQQITMLQTMYFNPKEFVASLSYYFGKDYGYLALLFRHDTQTKEVQVKRSEILAGFQYSIINNDCCYSLSGDTLYIAEKGFGYSNVGTLYTSEFISHEEAIYTHRDNKGFFVGRRNFKLGEDLWHIQVPQLNDEPADAKIEVSVEDNSKRVWKYNVNIIHYDGTKKNVTFEVDIDNGTIKGENDYTSLIIGKWKKTSGDAVATHVTYKNDGTFEYTSTEDSSYKEVGKYKIDGNKLYEMYSDEEEWIINDILLLNSMTLSVQELEADGVTPTGQKYSYQRVE”, the “soluble on expression in E. coli” value was “not soluble”.
As for “MYKVSIICTNYNKAPWISDALDSFLSQVTDFEVEIIVIDDASTDDSREILKSYQKKSSGKIKLLFNETNIGITKTWIKACLYAKGKYIARCDGDDYWTDSFKLQKQVDVLEASKRSRWCNTDFDFVNSQGDLLYANAFSSGHTPLTDTYEKVLALKGMTMASTWLVDADLMRQVNQKINVDTPDDTFDIQLELFQLTQLTYIKDSTTIYRMTTDSDSRPTDTPKMIYRIQKLLDTQLNYLKKYNQVDTKEVSELLLQQDAKQEIRIHELSCFIQELQQTIVDKTKQQETREVELQNVIEEQKNQLSELRQQYHAIINSRQWKYTSKLIAFIRRKK”, the “soluble on expression in E. coli” value is “not soluble”.
On to “MGSDKIHHHHHHMDFKQVQQSFIDYIRDPSRPLPADTDVRRMQVYRELFFNNVLGFVSNGFPVLKSLYSEEEWLALVQSFFSQHDCQSPIFIDIAGEFLDFLQQQYQPTANDPVFMLELAHYEWLELAVAVAQASGDESQLSPAQIPMQALCLSKTARVAQYHFEVQHIRQDYRPQQQLDTPVFFCLYQDADCEVCFLQLNPLSAQVLAFLQAQGQASFKEIVDWLTITYPQMAPEIIAQGCTQLLEQLAAKGIVRGRQS”, for which the “soluble on expression in E. coli” value is “not soluble”.
In the case of “MDQENERNISRLWRAFRTVKEMVKDRGYFITQEEVELPLEDFKAKYCDSMGRPQRKMMSFQANPTEESISKFPDMGSLWVEFCDEPSVGVKTMKTFVIHIQEKNFQTGIFVYQNNITPSAMKLVPSIPPATIETFNEAALVVNITHHELVPKHIRLSSDEKRELLKRYRLKESQLPRIQRADPVALYLGLKRGEVVKIIRKSETSGRYASYRICM”, the “soluble on expression in E. coli” value is on record as “soluble”.
Regarding “MTPEQAHARARATGPLPLGAGEPAPRGMVRLAHGDGTGLALQVWPDGATPSLLEEYQVAPVNVERSGETRRVLAAALKCCWTDLGADPWPGAPAPVEDVLSAYRALIGRGDDLMRNWAIGALRRLHDSAWLEVEDGVVRLGPRCACWPSESHAQLRELMRRLPTGDEGLTGLEVLPADGRAPAETAASVAPPEDVDEDLLGPFDERRRAEIVAAFIAVEHAAEPVHEARLPALRDPVLRRALAEMLQRRGRVLIQDREAWTSGYAPEVTAVTGTTVGEAERAVLVLVLIHSVAIPRADGLLPADSWLSPFPAQVEELRRHTRLPIGELEAALRTLRHAGLVTQVKAGEEAGGYTPGPQFHRLTPQARRGLQEELILAAGPHTPLAAAVRANRR”, the “soluble on expression in E. coli” value is reported as “not soluble”.
Regarding “MSPSLLGSSFLRSASGNFTKFASIRNAHFLSSVPMKKRGVDGNLPKDYFENKTVVVYFSAGWCGSCKFLTPKIKKFYNAVKESDAGKNLEIVWVSKDKEAAHQEEYYEKNLPDWPYIPFGDENIQKLSEKYKAVVIPVLKLVNSNGDVVHDRVRADVEAGIKADPVKTMEEWKKLLNQ”, the “soluble on expression in E. coli” value was “not soluble”.
The value for “MAWTSTLPAHLLNLIKNSKYVHVATCSKDCIPSVALMNYIYVPGEKLFGQTDNKNDYIIFVSPQDTQKFYNIKENPKVALLFHDWIIANNLSVGKESISGTPTPTSIPHEEQRQSELLNLLQELNQAELNQMSASIGGETEIVNPESEESKYYKDLILKANPDAKAFIFEKNTAVVKVRIDNARVSNNENRTMFLSKGKS” was “soluble”; that for “MGSDKIHHHHHHMQATRESRLIFNINLIYGRLQRNCYGLVALLLCFTSTSAAALDSPVFYKIEYQQQQAYLLGSIHVGRQDFYPLAQHIESAFKQSDALVVEADISQGDTGALLQRYGGLPAEIAADVNATRQEYCQSHQTLCQALAPYAPWLQSAQISMGRFGQLGYSAEQGVDAYFMANRSGKNVVELESIQFQFELISSFSTATQLQMLDDSINASDAEMLDLIYAWRQGDGNALANIMESQAGDADELLEKLLWQRNHTMAQKIIQLLQSKTHKQLFIVVGAGHIVGQQAIPDLLKQQGATITRCSFLQC” was “not soluble”.

These data come from the DeepSol protein solubility set.
